Measured values: PMC5029901

Biological target: GST-Gag (HIV-1 Gag fused to GST, from pGEX-6P-3/Gag) (HIV-1)
Assay: SPR

## FLAG-TSG101 (Tumor Susceptibility Gene 101) (from UniProt Q99816 1-390) (natural protein)
  Kd: 55.2 nM
  koff: 0.0223 s⁻¹
  kon: 924000 M⁻¹ s⁻¹
